Results published in US20190113512A1.
Values joined by “and” are separate entries in the source; they are usually repeats but may differ in a detail not shown here. Equal entries are not always repeated.

Molecular target: fluorescent reagents used to detect binding activity

| Binder | Quadrant % Q1 [%] |
| --- | --- |
| rcSso7d.Rv1656 (yeast-surface displayed) (designed binder) MATVKFTYQGEEKQVDISKIKWVRRYGQYIGFSYDEGGGAWGKGYVSEKDAPKELLQMLEKQ | 0.1 |

Molecular target: fluorescent reagents used to detect binding activity
Remark: another data set of the same source

| Binder | Secondary control signal |
| --- | --- |
| rcSso7d.H4.4 (designed binder) MATVKFTYQGEEKQVDISKIKSVKRNGQSIDFDYDEGGGAAGEGKVSEKDAPKELLQMLEKQ | 0% |
| rcSso7d.H7.1 (designed binder) MATVKFTYQGEEKQVDISKIKYVYRWGQRIWFRYDEGGGAIGRGRVSEKDAPKELLQMLEKQ | 1.8% |
| rcSso7d.H1BA.6 (designed binder) MATVKFTYQGEEKQVDISKIKDVWRWGQWIDFIYDEGGGADGWGRVSEKDAPKELLQMLEKQ | 0.5% |
| rcSso7d.H4.9 (designed binder) MATVKFTYQGEEKQVDISKIKYVKRIGQYISFNYDEGGGAHGHGIVSEKDAPKELLQMLEKQ | 0% |
| rcSso7d.Rv1656 (yeast-surface displayed) (designed binder) MATVKFTYQGEEKQVDISKIKWVRRYGQYIGFSYDEGGGAWGKGYVSEKDAPKELLQMLEKQ | 0.6% and 2.3% and 0% |
| rcSso7d.H1BA.5 (designed binder) MATVKFTYQGEEKQVDISKIKYVRRYGQYIGFIYDEGGGAWGKGYVSEKDAPKELLQMLEKQ | 0.9% |
| rcSso7d.H1BA.1 (designed binder) MATVKFTYQGEEKQVDISKIKHVRRWGQYIIFAYDEGGGAYGGGWVSEKDAPKELLQMLEKQ | 6% |
| rcSso7d.H1BA.4 (designed binder) MATVKFTYQGEEKQVDISKIKNVYRWGQYIIFSYDEGGGAYGWGWVSEKDAPKELLQMLEKQ | 0% |
| rcSso7d.H6BA.1 (designed binder) MATVKFTYQGEEKQVDISKIKWVYRYGQYIIFGYDEGGGAKGNGYVSEKDAPKELLQMLEKQ | 1.5% |
| rcSso7d.H6BA.2 (designed binder) MATVKFTYQGEEKQVDISKIKWVYRWGQYIIFAYDEGGGAAGKGSVSEKDAPKELLQMLEKQ | 7.3% |
| rcSso7d.H4.6 (designed binder) MATVKFTYQGEEKQVDISKIKSVHRYGQKIYFDYDEGGGAIGKGHVSEKDAPKELLQMLEKQ | 0% |
| rcSso7d.H4.3 (designed binder) MATVKFTYQGEEKQVDISKIKHVWRRGQNIYFRYDEGGGAWGAGAVSEKDAPKELLQMLEKQ | 0% |
| rcSso7d.H4.7 (designed binder) MATVKFTYQGEEKQVDISKIKYVWRHGQHIAFRYDEGGGAHGWGSVSEKDAPKELLQMLEKQ | 0% |
| rcSso7d.H4.8 (designed binder) MATVKFTYQGEEKQVDISKIKDVWRHGQHIIFSYDEGGGAYGAGHVSEKDAPKELLQMLEKQ | 0% |
| rcSso7d.H4.5 (designed binder) MATVKFTYQGEEKQVDISKIKGVYRHGQSIWFRYDEGGGAWGWGIVSEKDAPKELLQMLEKQ | 0.6% |
| rcSso7d.H6BA.3 (designed binder) MATVKFTYQGEEKQVDISKIKRVIRAGQSIIFSYDEGGGAIGHGWVSEKDAPKELLQMLEKQ | 1.7% |
| rcSso7d.H2BA.1 (designed binder) MATVKFTYQGEEKQVDISKIKRVIRYGQAIAFAYDEGGGARGYGWVSEKDAPKELLQMLEKQ | 3.2% |
